Data set [1] is described as follows: Western blot of yeast culture supernatant, 30°C. Particulars: glycan lost; control: wild-type full-length GA. On the technique in general: In western blotting, separated proteins are transferred to a membrane and probed.
The nature of data set [2]: extracellular GA activity of yeast cultures, 30°C. Particulars: glycan lost; control: wild-type full-length GA.

B1: Rhizopus oryzae glucoamylase (RoGA): Asn167 to Gln (protein)
parent chain: MQLFNLPLKVSFFLVLSYFSLLVSAASIPSSASVQLDSYNYDGSTFSGKIYVKNIAYSKKVTVIYADGSDNWNNNGNTIAASYSAPISGSNYEYWTFSASINGIKEFYIKYEVSGKTYYDNNNSANYQVSTSKPTTTTATATTTTAPSTSTTTPPSRSEPATFPTGNSTISSWIKKQEGISRFAMLRNINPPGSATGFIAASLSTAGPDYYYAWTRDAALTSNVIVYEYNTTLSGNKTILNVLKDYVTFSVKTQSTSTVCNCLGEPKFNPDASGYTGAWGRPQNDGPAERATTFILFADSYLTQTKDASYVTGTLKPAIFKDLDYVVNVWSNGCFDLWEEVNGVHFYTLMVMRKGLLLGADFAKRNGDSTRASTYSSTASTIANKISSFWVSSNNWIQVSQSVTGGVSKKGLDVSTLLAANLGSVDDGFFTPGSEKILATAVAVEDSFASLYPINKNLPSYLGNSIGRYPEDTYNGNGNSQGNSWFLAVTGYAELYYRAIKEWIGNGGVTVSSISLPFFKKFDSSATSGKKYTVGTSDFNNLAQNIALAADRFLSTVQLHAHNNGSLAEEFDRTTGLSTGARDLTWSHASLITASYAKAGAPAA
Regarding B1, the expression_or_secretion result in data set [1] is reported as “decreases”.

B2: Rhizopus oryzae glucoamylase (RoGA): T165A (protein)
parent chain: MQLFNLPLKVSFFLVLSYFSLLVSAASIPSSASVQLDSYNYDGSTFSGKIYVKNIAYSKKVTVIYADGSDNWNNNGNTIAASYSAPISGSNYEYWTFSASINGIKEFYIKYEVSGKTYYDNNNSANYQVSTSKPTTTTATATTTTAPSTSTTTPPSRSEPATFPTGNSTISSWIKKQEGISRFAMLRNINPPGSATGFIAASLSTAGPDYYYAWTRDAALTSNVIVYEYNTTLSGNKTILNVLKDYVTFSVKTQSTSTVCNCLGEPKFNPDASGYTGAWGRPQNDGPAERATTFILFADSYLTQTKDASYVTGTLKPAIFKDLDYVVNVWSNGCFDLWEEVNGVHFYTLMVMRKGLLLGADFAKRNGDSTRASTYSSTASTIANKISSFWVSSNNWIQVSQSVTGGVSKKGLDVSTLLAANLGSVDDGFFTPGSEKILATAVAVEDSFASLYPINKNLPSYLGNSIGRYPEDTYNGNGNSQGNSWFLAVTGYAELYYRAIKEWIGNGGVTVSSISLPFFKKFDSSATSGKKYTVGTSDFNNLAQNIALAADRFLSTVQLHAHNNGSLAEEFDRTTGLSTGARDLTWSHASLITASYAKAGAPAA
Regarding B2, the expression_or_secretion result in data set [1] is on record as “no change”. The enzymatic_activity entry in data set [2] was “no change”.

Values taken from paper PMC1933424.
